Measurements reported in PMC9584609.

Target: T1, Kir2.1 tagged with mVenus and PAmCherry (human), P63252
T1 chain: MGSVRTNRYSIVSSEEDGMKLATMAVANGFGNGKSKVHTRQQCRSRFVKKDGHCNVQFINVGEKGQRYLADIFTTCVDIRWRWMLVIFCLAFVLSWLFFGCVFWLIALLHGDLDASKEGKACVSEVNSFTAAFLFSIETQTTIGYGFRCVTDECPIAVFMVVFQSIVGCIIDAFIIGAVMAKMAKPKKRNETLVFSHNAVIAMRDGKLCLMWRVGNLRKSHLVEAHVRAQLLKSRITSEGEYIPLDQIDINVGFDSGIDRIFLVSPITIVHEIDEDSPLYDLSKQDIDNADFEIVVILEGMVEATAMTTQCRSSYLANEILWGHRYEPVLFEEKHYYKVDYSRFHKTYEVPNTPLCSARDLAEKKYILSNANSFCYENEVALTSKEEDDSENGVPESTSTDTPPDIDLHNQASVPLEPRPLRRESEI
Assay: native gel or EMSA; high-resolution clear native electrophoresis (hrCNE); lysate of transfected HEK293T cells in 0.1 M sodium phosphate with 0.5% digitonin or 20 mM DDM; 4-14% acrylamide gradient gel run at 4 °C; mVenus fluorescence scanned; VGLUTs and sialin with and without PNGaseF
Details: remark: other sources report otherwise

B1: Kir2.1 tagged with mVenus and PAmCherry, P63252 1-427 (natural protein)
chain: T1 chain
**Q.** Which stoichiometry N does the source give for B1 here?
**A.** 4
